Measured values as given in article PMC3848071 (Acta Naturae, 2013).

Assays:
MGL from C. sporogenes = target: T1, MGL from C. sporogenes (Clostridium sporogenes, UniProt A0A7X5SZI3); format: biochemical; settings: read-out: MGL from C. sporogenes / Кm
T1 construct: gene megL

MGL from C. tetani = target: T2, MGL from C. tetani (Clostridium tetani, UniProt Q890V5); settings: read-out: MGL from C. tetani / Кm
T2 construct: gene CTC_02530

MGL from P. gingivalis = MGL from P. gingivalis (Porphyromonas gingivalis, UniProt Q7MX71); settings: read-out: MGL from P. gingivalis / Кm
CCSC[C@H](N)C(=O)O = assay: purified protein
CSCC[C@H](N)C(=O)O = assay: purified protein
[1] = test system: C[S+]([O-])CC[C@H](N)C(=O)O; assay: purified protein
[2] = test system: N[C@@H](CSCc1ccccc1)C(=O)O; assay: purified protein

Molecule | Km (MGL from C. sporogenes) [µM] | Km (MGL from C. tetani) [µM] | Km (MGL from P. gingivalis) [µM] | Km (CCSC[C@H](N)C(=O)O) [µM] | kcat/Km (CCSC[C@H](N)C(=O)O) [M⁻¹ s⁻¹] | Km (CSCC[C@H](N)C(=O)O) [µM] | kcat/Km (CSCC[C@H](N)C(=O)O) [M⁻¹ s⁻¹] | Km [1] [µM] | kcat/Km [1] [M⁻¹ s⁻¹] | Km [2] [µM] | kcat/Km [2] [M⁻¹ s⁻¹]
CCSCC[C@H](N)C(=O)O [S-Et-L-Hcy] | 278 | 545 | 930 |  |  |  |  |  |  |  | 
MGL from P. gingivalis (Porphyromonas gingivalis W83) |  |  |  | 2170 | 3710 | 1770 | 2200 | 12220 | 413 | 1470 | 3940
MGL from C. tetani (Clostridium tetani E88) |  |  |  |  |  | 947 | 12700 |  |  |  | 
